{
  "source": "paper PMC5115946",
  "about": "(Journal of molecular biology, 2016)",
  "key": {"[1]": {"molecular_target": "the molecule itself", "assay": "AUC"}, "[2]": {"molecular_target": "UBCH5B (ubiquitin-conjugating enzyme E2 D2) (human, UniProt P62837 1-147)", "assay": "AUC"}},
  "data": [
    {"binder": "RING finger protein 4 (RNF4) (enzyme, human, UniProt P78317 1-190, looked up) MSTRKRRGGAINSRQAQKRTREATSTPEISLEAEPIELVETAGDEIVDLTCESLEPVVVDLTHNDSVVIVDERRRPRRNARRLPQDHADSCVVSSDDEELSRDRDVYVTTHTPRNARDEGATGLRPSGTVSCPICMDGYSEIVQNGRLIVSTECGHVFCSQCLRDSLKNANTCPTCRKKINHKRYHPIYI", "values": [
      {"measurement": "stoichiometry N", "setting": "[1]", "value": 2},
      {"measurement": "Kd", "setting": "[2]", "value": 15, "unit": "µM"}
    ]}
  ]
}
